T1: Rat EphA3 Fc fusion (Rat, UniProt O08680 21-541)
T1 construct: Bought Fc fusion; also called Sino Biologics 80465-R02H; not shown: Fc of the bought fusion
T1 sequence (looked up): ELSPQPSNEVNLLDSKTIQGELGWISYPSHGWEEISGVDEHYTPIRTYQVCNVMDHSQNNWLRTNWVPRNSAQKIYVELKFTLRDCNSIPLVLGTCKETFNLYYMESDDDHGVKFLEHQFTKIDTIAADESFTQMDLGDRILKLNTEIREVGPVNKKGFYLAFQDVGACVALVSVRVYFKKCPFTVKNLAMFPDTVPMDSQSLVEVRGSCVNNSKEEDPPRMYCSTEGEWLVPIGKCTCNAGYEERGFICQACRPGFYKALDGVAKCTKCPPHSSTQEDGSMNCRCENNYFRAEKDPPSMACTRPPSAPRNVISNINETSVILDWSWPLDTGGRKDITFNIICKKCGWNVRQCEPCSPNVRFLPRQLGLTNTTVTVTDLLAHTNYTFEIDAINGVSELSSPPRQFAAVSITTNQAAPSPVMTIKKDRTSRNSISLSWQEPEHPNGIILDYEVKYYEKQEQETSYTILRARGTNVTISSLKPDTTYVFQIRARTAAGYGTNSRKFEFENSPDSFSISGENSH

T2: Mouse EphA3 Fc fusion (Mouse, UniProt P29319 21-540)
T2 construct: Bought Fc fusion; also called Sino Biologics 51122-M02H; not shown: Fc of the bought fusion
T2 sequence (looked up): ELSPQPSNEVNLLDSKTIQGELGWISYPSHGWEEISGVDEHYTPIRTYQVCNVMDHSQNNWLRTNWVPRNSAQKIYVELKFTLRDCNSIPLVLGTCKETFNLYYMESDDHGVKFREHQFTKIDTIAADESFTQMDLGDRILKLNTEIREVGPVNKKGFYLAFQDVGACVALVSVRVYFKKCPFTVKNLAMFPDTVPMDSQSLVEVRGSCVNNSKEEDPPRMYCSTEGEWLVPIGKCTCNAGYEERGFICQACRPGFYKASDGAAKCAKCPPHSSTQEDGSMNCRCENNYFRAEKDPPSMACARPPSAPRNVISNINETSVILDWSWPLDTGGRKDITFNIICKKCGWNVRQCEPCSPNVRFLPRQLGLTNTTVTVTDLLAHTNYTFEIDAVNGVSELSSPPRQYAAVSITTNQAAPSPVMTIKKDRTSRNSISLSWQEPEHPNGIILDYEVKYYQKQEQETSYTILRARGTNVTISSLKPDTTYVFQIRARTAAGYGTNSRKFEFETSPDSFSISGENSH

T3: Rat EphB1 Fc fusion (Rat, UniProt P09759 18-540, limits assumed)
T3 construct: Bought Fc fusion; also called R&D Systems 1596-B1; not shown: Fc of the bought fusion
T3 sequence (looked up): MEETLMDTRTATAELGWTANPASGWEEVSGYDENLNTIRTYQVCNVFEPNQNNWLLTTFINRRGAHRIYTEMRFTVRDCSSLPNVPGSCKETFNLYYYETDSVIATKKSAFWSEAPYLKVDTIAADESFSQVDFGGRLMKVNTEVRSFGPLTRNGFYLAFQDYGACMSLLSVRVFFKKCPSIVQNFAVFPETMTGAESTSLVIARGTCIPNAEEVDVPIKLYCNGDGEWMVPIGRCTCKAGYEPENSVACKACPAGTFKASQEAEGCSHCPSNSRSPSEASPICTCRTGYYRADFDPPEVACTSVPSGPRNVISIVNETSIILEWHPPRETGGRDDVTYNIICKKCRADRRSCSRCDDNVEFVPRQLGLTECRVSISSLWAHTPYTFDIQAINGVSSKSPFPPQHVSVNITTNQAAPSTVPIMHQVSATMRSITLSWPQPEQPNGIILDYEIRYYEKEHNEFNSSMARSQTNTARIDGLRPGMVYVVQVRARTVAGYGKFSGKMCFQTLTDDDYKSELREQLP

B1: BCY6033 (peptide)
peptide: AXDCPLVNPLCLHPGWTC
modifications: not fully specified; as BCY6014 (N-terminal (β-Ala)-Sar10; HArg; TATA scaffold on the 3 Cys) + ValCit-MMAE
notes: Bicycle drug conjugate (BDC)
B2: BCY6033 (peptide)
peptide: AXDCPLVNPLCLHPGWTC
modifications: not fully specified; N-terminal (β-Ala)-Sar10 spacer precedes SEQ ID NO: 11; HArg (homoarginine) at residue 2 of SEQ ID NO: 11; three Cys cyclised on the TATA scaffold; ValCit-MMAE (MMAE-PABC-Cit-Val-glutarate) on the N-terminal amine
B3: BCY6082 (peptide)
peptide: AXDCPLVNPLCLHPGWTC
modifications: not fully specified; N-terminal (β-Ala)-Sar10 spacer precedes SEQ ID NO: 11; HArg (homoarginine) at residue 2 of SEQ ID NO: 11; three Cys cyclised on the TATA scaffold; DM1-SS(SO3H)- (DM1-SO3H-SPDB) on the N-terminal amine
B4: BCY6082 (peptide)
peptide: AXDCPLVNPLCLHPGWTC
modifications: not fully specified; as BCY6014 (N-terminal (β-Ala)-Sar10; HArg; TATA scaffold on the 3 Cys) + DM1-SS(SO3H)-
notes: Bicycle drug conjugate (BDC)

How the values were obtained:
[1] = biological target: T4, Human EphA5, biotinylated (Human, UniProt P54756 25-573, limits assumed, 3.1 mol biotin/monomer); assay: SPR
T4 construct: SPR; R&D Systems 3036-A5
T4 sequence (P54756 25-573 limits assumed): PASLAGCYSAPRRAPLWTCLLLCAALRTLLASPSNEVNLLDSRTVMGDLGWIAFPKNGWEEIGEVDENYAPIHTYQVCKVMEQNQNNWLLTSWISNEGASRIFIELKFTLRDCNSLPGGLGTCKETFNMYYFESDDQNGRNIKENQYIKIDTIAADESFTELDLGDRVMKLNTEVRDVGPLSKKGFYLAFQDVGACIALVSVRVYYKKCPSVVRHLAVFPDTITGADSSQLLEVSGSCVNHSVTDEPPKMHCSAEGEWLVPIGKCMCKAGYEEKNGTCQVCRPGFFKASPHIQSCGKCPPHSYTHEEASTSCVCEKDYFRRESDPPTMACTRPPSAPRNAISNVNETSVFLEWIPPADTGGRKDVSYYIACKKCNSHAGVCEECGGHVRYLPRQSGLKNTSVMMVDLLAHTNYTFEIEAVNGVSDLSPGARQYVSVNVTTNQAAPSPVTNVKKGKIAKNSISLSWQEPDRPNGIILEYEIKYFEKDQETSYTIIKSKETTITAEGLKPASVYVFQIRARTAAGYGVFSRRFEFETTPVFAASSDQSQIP

[2] = biological target: T5, Rat EphA2 (ligand binding), C-terminal polyHis (Rat); assay: FP competition vs Reference Compound C (Study 2)
T5 construct: In-house

[3] = biological target: T6, Human EphA2 (Ecto), C-terminal polyHis (Human, UniProt P29317 24-537); assay: FP competition vs Reference Compound C (Study 2)
T6 construct: extracellular domain; R&D systems 3035-A2 or in-house
T6 sequence (P29317 24-537): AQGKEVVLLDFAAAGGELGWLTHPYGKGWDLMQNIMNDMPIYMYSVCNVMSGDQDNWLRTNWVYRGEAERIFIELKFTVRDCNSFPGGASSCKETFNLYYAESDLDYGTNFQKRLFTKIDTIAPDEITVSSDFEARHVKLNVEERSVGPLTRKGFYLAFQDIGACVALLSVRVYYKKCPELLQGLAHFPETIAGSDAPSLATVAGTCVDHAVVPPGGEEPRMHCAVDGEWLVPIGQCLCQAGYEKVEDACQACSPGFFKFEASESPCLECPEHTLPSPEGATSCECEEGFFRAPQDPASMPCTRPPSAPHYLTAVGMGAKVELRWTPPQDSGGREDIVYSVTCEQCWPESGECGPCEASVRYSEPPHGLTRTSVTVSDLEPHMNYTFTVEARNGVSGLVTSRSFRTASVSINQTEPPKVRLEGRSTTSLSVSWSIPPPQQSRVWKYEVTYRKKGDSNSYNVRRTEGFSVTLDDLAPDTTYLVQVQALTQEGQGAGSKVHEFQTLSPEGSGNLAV

Mouse EphA2 (Ecto) = biological target: T7, Mouse EphA2 (Ecto) (Mouse, UniProt Q03145 26-538); assay: FP competition vs Reference Compound C (Study 2)
T7 construct: extracellular domain; Fluorescence polarisation assays; not shown: Fc fusion (R&D Systems 639-A2) or C-terminal polyHis (Sino Biological 50586-M08H)
T7 sequence (Q03145 26-538): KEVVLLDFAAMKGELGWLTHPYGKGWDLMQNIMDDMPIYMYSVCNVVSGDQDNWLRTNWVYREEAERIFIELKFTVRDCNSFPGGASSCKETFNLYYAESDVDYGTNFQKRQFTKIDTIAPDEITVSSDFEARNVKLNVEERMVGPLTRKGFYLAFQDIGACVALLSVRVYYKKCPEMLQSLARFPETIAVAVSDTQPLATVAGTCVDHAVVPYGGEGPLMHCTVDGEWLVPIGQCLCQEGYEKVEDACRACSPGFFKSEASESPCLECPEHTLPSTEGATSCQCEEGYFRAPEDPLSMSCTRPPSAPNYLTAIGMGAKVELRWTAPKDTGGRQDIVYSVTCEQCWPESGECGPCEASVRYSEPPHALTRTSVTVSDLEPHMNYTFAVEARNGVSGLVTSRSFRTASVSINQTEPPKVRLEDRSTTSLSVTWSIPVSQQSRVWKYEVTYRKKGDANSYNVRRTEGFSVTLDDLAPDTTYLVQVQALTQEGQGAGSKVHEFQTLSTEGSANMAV

Human EphA5 = biological target: T8, Human EphA5 (Human, UniProt P54756 25-573, limits assumed, biotinylated, 3.1 mol biotin/monomer); assay: SPR, biotinylated protein on streptavidin
T8 construct: Bought protein; also called R&D Systems 3036-A5
T8 sequence (P54756 25-573 limits assumed): as the sequence (P54756 25-573 limits assumed) above

Mouse EphA2 Fc fusion = biological target: T9, Mouse EphA2 Fc fusion (Mouse, UniProt Q03145 26-535, limits assumed); assay: SPR, Fc-tagged EphA2 captured by anti-human IgG
T9 construct: Bought Fc fusion; also called R&D Systems 639-A2; not shown: Fc of the bought fusion
T9 sequence (Q03145 26-535 limits assumed): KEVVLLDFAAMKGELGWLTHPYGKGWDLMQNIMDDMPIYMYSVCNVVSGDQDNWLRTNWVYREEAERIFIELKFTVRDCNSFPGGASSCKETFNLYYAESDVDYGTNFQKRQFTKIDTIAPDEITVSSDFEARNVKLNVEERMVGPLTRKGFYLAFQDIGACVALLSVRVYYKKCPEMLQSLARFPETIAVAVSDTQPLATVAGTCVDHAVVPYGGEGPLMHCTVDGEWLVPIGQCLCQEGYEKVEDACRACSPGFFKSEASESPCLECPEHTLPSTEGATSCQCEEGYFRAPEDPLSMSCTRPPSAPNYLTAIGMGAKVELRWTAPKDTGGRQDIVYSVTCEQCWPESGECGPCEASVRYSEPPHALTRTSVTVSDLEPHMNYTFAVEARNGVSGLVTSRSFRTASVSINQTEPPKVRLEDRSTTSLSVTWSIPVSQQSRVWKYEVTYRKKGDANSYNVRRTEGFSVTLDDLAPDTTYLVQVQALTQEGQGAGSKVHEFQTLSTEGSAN

Human EphA4 Fc fusion = biological target: T10, Human EphA4 Fc fusion (Human, UniProt P54764 20-547); assay: SPR, Fc-tagged protein captured by anti-human IgG
T10 construct: Bought Fc fusion; also called Sino Biologics 11314-H03H; not shown: Fc of the bought fusion
T10 sequence (P54764 20-547 limits assumed): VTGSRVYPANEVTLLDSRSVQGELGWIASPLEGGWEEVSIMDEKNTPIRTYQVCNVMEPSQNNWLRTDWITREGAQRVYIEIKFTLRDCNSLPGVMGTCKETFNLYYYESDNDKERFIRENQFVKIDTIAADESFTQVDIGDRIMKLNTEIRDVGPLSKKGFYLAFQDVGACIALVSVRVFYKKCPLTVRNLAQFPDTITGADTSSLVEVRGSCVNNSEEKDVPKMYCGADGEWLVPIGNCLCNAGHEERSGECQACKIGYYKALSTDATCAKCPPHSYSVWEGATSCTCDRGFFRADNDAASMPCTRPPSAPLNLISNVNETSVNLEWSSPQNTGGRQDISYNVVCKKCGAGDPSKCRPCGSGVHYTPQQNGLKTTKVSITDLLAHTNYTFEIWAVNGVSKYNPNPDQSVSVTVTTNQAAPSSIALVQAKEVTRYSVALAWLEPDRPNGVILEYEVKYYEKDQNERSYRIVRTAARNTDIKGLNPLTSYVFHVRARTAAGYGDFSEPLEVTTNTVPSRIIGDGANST

Rat EphA3 Fc fusion = biological target: T1, Rat EphA3 Fc fusion; assay: SPR, Fc-tagged protein captured by anti-human IgG
Mouse EphA3 Fc fusion = biological target: T2, Mouse EphA3 Fc fusion; assay: SPR, Fc-tagged protein captured by anti-human IgG
Rat EphB1 Fc fusion = biological target: T3, Rat EphB1 Fc fusion; assay: SPR, Fc-tagged protein captured by anti-human IgG
Mouse EphA4 Fc fusion = biological target: T11, Mouse EphA4 Fc fusion (Mouse, UniProt Q03137 20-547); assay: SPR, Fc-tagged protein captured by anti-human IgG
T11 construct: Bought Fc fusion; also called Sino Biologics 50575-M02H; not shown: Fc of the bought fusion
T11 sequence (Q03137 20-547 limits assumed): as the sequence (P54764 20-547 limits assumed) above, with P59A, N121S, V124G, R250Q, S251N, T270S, K378R, N406S counted along it

Binder	binding result [1]	Ki [2]	Ki [3]	Ki (Mouse EphA2 (Ecto))	binding result (Human EphA5)	Kd (Mouse EphA2 Fc fusion)	t1/2 (Mouse EphA2 Fc fusion)	binding result (Human EphA4 Fc fusion)	binding result (Rat EphA3 Fc fusion)	binding result (Mouse EphA3 Fc fusion)	binding result (Rat EphB1 Fc fusion)	binding result (Mouse EphA4 Fc fusion)
B1	no binding	13.4 nM	9.9 nM	34.2 nM								
B2					no binding (tested: 25 µM)	21.8 nM	1.8 min	no binding (tested: 5 µM)	no binding (tested: 20 µM)	no binding (tested: 20 µM)	no binding (tested: 20 µM)	no binding (tested: 20 µM)
B3					no binding (tested: 25 µM)	18.3 nM	1.9 min	no binding (tested: 5 µM)	no binding (tested: 20 µM)	no binding (tested: 20 µM)	no binding (tested: 20 µM)	no binding (tested: 20 µM)
B4	no binding	13.9 nM	10.5 nM	34.1 nM								
